Measurements: patent US20080305997A1 (UNIVERSITY OF NORTH CAROLINA AT CHARLOTTE, published 2008)

These binders were tested against T1, sCD4-HRP (Research Diagnostics Inc.) (UniProt P01730 26-396, limits assumed) (assay: microtiter competition; free P11 added to sCD4-HRP on plate-bound P11).
T1 construct: extracellular domain
Procedure: Purified sCD4 was coated overnight at 4° C. at the indicated concentrations in 0.1M sodium carbonate buffer (pH 9.5) in 96 well plates. Equimolar amounts of lysozyme were used as a non-specific control. […] The reaction was stopped by adding TMB stop solution (KPL). […] The wells were washed and blocked prior to incubation with sCD4-HRP (Research Diagnostics Inc., Flanders, N.J., U.S.A.).

Row | Binder | IC50 [nM]
1 | GPNGQTCAEKNKCVGHIPGC (Chemically synthesized (GenScript); also called P11k) [P11, C-terminal peptide of Salp15 (amino acids 95-114)] | 1250

Each binder was assayed against T1, sCD4-HRP (Research Diagnostics Inc.) (assay: microtiter assay, increasing concentrations of plate-bound P11, sCD4-HRP, non-linear curve fit).

Row | Binder | Kd [nM]
2 | GPNGQTCAEKNKCVGHIPGC (Chemically synthesized (GenScript); also called P11k) [P11, C-terminal peptide of Salp15 (amino acids 95-114)] | 50

The binders below were run against T1, sCD4-HRP (Research Diagnostics Inc.) (assay: microtiter assay, plate-bound peptide, sCD4-HRP).

Row | Binder | binding result
3 | SNHQKLALKLLKICKDSKSS (Chemically synthesized (GenScript); coated on the plate) [P4, overlapping synthetic peptide of Salp15 (amino acids 31-50)] | no binding (tested: 0.5 µg peptide coated)
4 | DTPCGPNGQTCAEKNKCVGH (Chemically synthesized (GenScript); coated on the plate) [P10, overlapping synthetic peptide of Salp15 (amino acids 91-110)] | no binding (tested: 0.5 µg peptide coated)
5 | DVNVTLNLPEDTPCGPNGQT (Chemically synthesized (GenScript); coated on the plate) [P9, overlapping synthetic peptide of Salp15 (amino acids 81-100)] | no binding (tested: 0.5 µg peptide coated)
6 | STADKDTKKNNVQLRFPNYI (Chemically synthesized (GenScript); coated on the plate) [P2, overlapping synthetic peptide of Salp15 (amino acids 11-30)] | no binding (tested: 0.5 µg peptide coated)
7 | NVQLRFPNYISNHQKLALKL (Chemically synthesized (GenScript); coated on the plate) [P3, overlapping synthetic peptide of Salp15 (amino acids 21-40)] | no binding (tested: 0.5 µg peptide coated)
8 | NCTFLCKHGNDVNVTLNLPE (Chemically synthesized (GenScript)) [P8, overlapping synthetic peptide of Salp15 (amino acids 71-90)] | no binding (tested: 0.5 µg peptide coated)
9 | VINDKYVDFKNCTFLCKHGN (Chemically synthesized (GenScript); coated on the plate) [P7, overlapping synthetic peptide of Salp15 (amino acids 61-80)] | no binding (tested: 0.5 µg peptide coated)
10 | HNSLSSRSSDVINDKYVDFK (Chemically synthesized (GenScript); coated on the plate) [P6, overlapping synthetic peptide of Salp15 (amino acids 51-70)] | no binding (tested: 0.5 µg peptide coated)
11 | NESGPTKADASTADKDTKKN (Chemically synthesized (GenScript); coated on the plate) [P1, overlapping synthetic peptide of Salp15 (amino acids 1-20)] | no binding (tested: 0.5 µg peptide coated)
12 | LKICKDSKSSHNSLSSRSSD (Chemically synthesized (GenScript); coated on the plate) [P5, overlapping synthetic peptide of Salp15 (amino acids 41-60)] | no binding (tested: 0.5 µg peptide coated)
